Results from patent US6545131.

Key:
[1] = system: Mu-ATKSKQH-AMC (Ala-Thr-Lys-Ser-Lys-Gln-His; SEQ ID NO:13)
[2] = system: Mu-EHSSKLQ-AMC (Glu-His-Ser-Ser-Lys-Leu-Gln; SEQ ID NO:10)
[3] = system: Mu-ENKISYQ-AMC (Glu-Asn-Lys-Ile-Ser-Tyr-Gln; SEQ ID NO:12)
[4] = system: Mu-HSSKLQ-AMC (His-Ser-Ser-Lys-Leu-Gln; SEQ ID NO:7)
[5] = system: Mu-KLQ-AMC
[6] = system: Mu-LQ-AMC
[7] = system: Mu-SKLQ-AMC (Ser-Lys-Leu-Gln; SEQ ID NO:1)
[8] = system: Mu-QNKISYQ-AMC (Gln-Asn-Lys-Ile-Ser-Tyr-Gln; SEQ ID NO:11)
[9] = system: Mu-ATKSKQH-AMC (Ala-Thr-Lys-Ser-Lys-Gln-His; SEQ ID NO:13); experiment: fluorogenic AMC-release kinetics, Lineweaver-Burke plot
[10] = system: Mu-EHSSKLQ-AMC (Glu-His-Ser-Ser-Lys-Leu-Gln; SEQ ID NO:10); experiment: as above
[11] = system: Mu-HSSKLQ-AMC (His-Ser-Ser-Lys-Leu-Gln; SEQ ID NO:7); experiment: as above
[12] = system: Mu-SKLQ-AMC (Ser-Lys-Leu-Gln; SEQ ID NO:1); experiment: as above

Sequence of tissue plasminogen activator (TPA) (P00750 36-562): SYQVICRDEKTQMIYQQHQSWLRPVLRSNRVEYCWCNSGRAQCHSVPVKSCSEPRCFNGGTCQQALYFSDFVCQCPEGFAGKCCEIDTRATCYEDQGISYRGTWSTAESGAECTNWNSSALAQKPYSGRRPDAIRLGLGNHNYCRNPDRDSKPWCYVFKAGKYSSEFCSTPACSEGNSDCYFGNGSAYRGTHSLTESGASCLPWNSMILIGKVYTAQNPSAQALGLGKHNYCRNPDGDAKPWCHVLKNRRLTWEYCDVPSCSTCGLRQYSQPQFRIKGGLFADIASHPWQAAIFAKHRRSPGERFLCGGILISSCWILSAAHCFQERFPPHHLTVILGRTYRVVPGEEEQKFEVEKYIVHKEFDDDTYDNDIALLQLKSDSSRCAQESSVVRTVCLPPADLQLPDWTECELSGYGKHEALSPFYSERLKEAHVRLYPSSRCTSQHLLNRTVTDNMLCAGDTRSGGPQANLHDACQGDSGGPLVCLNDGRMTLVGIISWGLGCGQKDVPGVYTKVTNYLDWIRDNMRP
Sequence of plasmin (P00747 20-580): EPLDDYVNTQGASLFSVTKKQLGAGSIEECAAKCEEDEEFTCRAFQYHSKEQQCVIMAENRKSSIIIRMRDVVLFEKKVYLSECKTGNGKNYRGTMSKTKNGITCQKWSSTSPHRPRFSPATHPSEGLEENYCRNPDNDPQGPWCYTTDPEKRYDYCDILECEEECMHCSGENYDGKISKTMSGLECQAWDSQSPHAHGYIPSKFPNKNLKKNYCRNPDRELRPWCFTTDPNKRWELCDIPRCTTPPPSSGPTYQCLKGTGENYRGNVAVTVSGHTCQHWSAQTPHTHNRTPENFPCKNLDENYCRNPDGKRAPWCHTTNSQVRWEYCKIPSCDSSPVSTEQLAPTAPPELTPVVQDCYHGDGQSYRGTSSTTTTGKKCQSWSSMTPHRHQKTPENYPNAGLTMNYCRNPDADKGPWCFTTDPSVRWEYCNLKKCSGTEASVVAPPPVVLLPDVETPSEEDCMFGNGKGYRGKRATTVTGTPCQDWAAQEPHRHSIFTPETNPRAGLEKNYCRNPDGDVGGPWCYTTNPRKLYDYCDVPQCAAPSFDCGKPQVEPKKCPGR
Sequence of plasmin (P00747 581-810): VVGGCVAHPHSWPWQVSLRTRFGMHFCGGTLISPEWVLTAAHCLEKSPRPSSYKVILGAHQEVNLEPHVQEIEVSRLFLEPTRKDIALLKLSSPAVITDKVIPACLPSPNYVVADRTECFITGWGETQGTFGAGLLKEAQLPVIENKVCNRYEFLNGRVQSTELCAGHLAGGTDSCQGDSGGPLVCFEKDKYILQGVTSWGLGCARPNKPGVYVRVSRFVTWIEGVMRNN

Substance | substrate cleavage rate (AMC release) (pmol/min/200 pmol protease) [1] | substrate cleavage rate (AMC release) (pmol/min/200 pmol protease) [2] | substrate cleavage rate (AMC release) (pmol/min/200 pmol protease) [3] | peptide cleavage rate (AMC release) (pmol/min/200 pmol protease) [2] | peptide cleavage rate (AMC release) (pmol/min/200 pmol protease) [4] | peptide cleavage rate (AMC release) (pmol/min/200 pmol protease) [5] | peptide cleavage rate (AMC release) (pmol/min/200 pmol protease) [6] | peptide cleavage rate (AMC release) (pmol/min/200 pmol protease) [7] | substrate cleavage rate (AMC release) (pmol/min/200 pmol protease) [8] | also measured
urokinase | < 0.1 | < 0.1 | < 0.1 |  |  |  |  |  |  | 
porcine liver esterase |  |  |  | < 0.1 | < 0.1 | < 0.1 | < 0.1 | < 0.1 |  | 
tissue plasminogen activator (TPA) | < 0.1 | < 0.1 | 0.04 |  |  |  |  |  | 0.4 | 
elastase | < 0.1 | < 0.1 | 2.6 |  |  |  |  |  | 9 | 
Cathepsin C |  |  |  | < 0.1 | < 0.1 | < 0.1 | < 0.1 | < 0.1 |  | 
chymotrypsin | 38.8 | < 0.1 | 3.6 |  |  |  |  |  | 9 | 
Cathepsin B |  |  |  | 4.3 | 17.3 | 87 | 190 | 31.2 |  | 
prostate specific antigen (PSA) | 16 | 31.6 | 14.4 | 31.6 | 62.7 | 0.4 | < 0.1 | 29.6 | 16.8 | Kcat [1]: 0.0091 s⁻¹; Kcat/Km [1]: 6.9 s^-1M^-1; Kcat [2]: 0.02 s⁻¹; Kcat/Km [2]: 10.6 s^-1M^-1; Kcat [4]: 0.011 s⁻¹; Kcat/Km [4]: 23.6 s^-1M^-1; Kcat [7]: 0.02 s⁻¹; Kcat/Km [7]: 24.6 s^-1M^-1; Km [9]: 310 µM; Km [10]: 1160 µM; Km [11]: 470 µM; Km [12]: 813 µM
thrombin | 0.2 | < 0.1 | 0.3 |  |  |  |  |  | 0.4 | 
human kallikrein, hK1 | < 0.1 | < 0.1 | < 0.1 |  |  |  |  |  |  | 
Cathepsin D |  |  |  | 2.2 | 3.8 |  | 20 | 6.4 |  | 
plasmin | < 0.1 | < 0.1 | 0.6 |  |  |  |  |  | < 0.1 | 
